# B1: 66 (protein)
# chain: KIISCVIQKNPILHLWKIYSFQKCPHNYYCEQESLKKKKCPPNSIKTIYDGTINDCLCLPGYYLKGNIQTCIPCEKGSYKNTISNDACIKCPINFATLFETSKSVYDCVCRKGYYFSWNTNIDTNDIEKKNIYNNNINSIYRNKNEIKLIKELEEEYAFNVEKKRKNKHKFILHKKLNNRYRENIHKKQISLKRKIKFLNEQKEINNHLNFLHVNEILNIAFFNDNQNYIYKNKNKQENDANIEINPVSKQTSLHSNNIANKYMRNNFLQINEKLYINNANNNYNEYIHKAQCTKCPRKMFCPGYWLENYENEIHHPPIYCPKGSLILGTTIESTDIHKCICRKGYSINLAIKPNRNKNVNVNDNDNGNNNNNANNNNNNANGNSATLNNNNNMCVMCKEGYYKDVIDNSVCAGLCIEFSTSFKGSISKKQCFCTVGKYMIQDEKDENKCINCAKGSICIGGFKFKSLRELIKNQYYINLNIYDHSIPLPKKGYFATFQINHEDFKWKPLNSLHIEINNYEKGNIIITDKIILNVFHKKLHLINIGEKNKYDQADQGIYIKKNLNNNAFIHNNNNIKYIVEESKHLRDRTMANIPNEPILVNEKLEPIIYKNNFLMIDRIPDFHLCPISNRCMGTSSNLCFKGSEGYLCNNCANSYDVIHFRSQCIKCRKKKTEM
# modifications: bait human Fc-tagged dimer
# B2: 15 (protein)
# chain: MAFFSIFIILNFFMLSLTSSLGNGFLHSSITFSNDFCKGMNLHFLISAEEIDSKFFLNKMLLLILGGSSYMRYSKENYFSVSIYDKKLVYKNIKKIENIQGASYYEQLQSAFKKHIKPSARRTNLYESLKEYYEKYIIGNKNIKKSKNIIIIVKKFTSDDLSEYHENLNRYIKEIRSKDVGIYFFSDDSIYSKNIILNIAESGYNMEVQYPIAHFVSESYRANDLFGVKKFCYQLLHGATCKSYNEWSEWSGPCEFERRQRIIPLKITNIESTNFRSHYDPSCRNVFDYSMSIKEDFRVNCKNSIYECRGICDKGYKFKPYAKSNEIVESYEECNDLPPCTRDQRKNGDHTLYADVILNSLLSESSIQQIRDRDDRALIEKDMP
# modifications: bait human Fc-tagged dimer
# B3: 80 (protein)
# chain: INPATLIQNHLYMYQTNNAINEENIYNMKKFSKLPIAENTRNIRHSTNDLYYEHSLNLEKPNEHFTLHNIKLICQQIYHNQPNQLNLRILAVLLSTSYKQENIANIFQNLCNNGLSCLFTIQLSKNKAFVDQNKIVHLKIIDTDDLKRNKNNNIRHKITVYYICEDLKYKNQKQQESNEFKYVFNYEQLAFLKCENYLTVQVEKLVGINYNKEFHNLNPEYISFYCSQRVICNTHIEDLYKEDDKKRKNYIFYELTYRCVPPKVCSFCGNNAACKLEKLYNKEKEITQFYNNVEYNDAGVFDRLLLNKEEEEERNKASFVANLEYNAINYDIDDMITVGSNTYHILEICKCSKDYVQEGSSCVKKEKDKIYIRYAKK
# modifications: bait human Fc-tagged dimer
# B4: 34 (protein)
# chain: TKKKVSVSEINFDSAVDDVQWCGNNHMTVLVKTVKGRLYRSSDGGKIWTNIAGNLADKENNKADPSSNHMNEMTTVDLIMVNSVNKNIVLIIGNQKNHYISEDSGETFRLLNYQNKINFWQFHSTKTHWALVSSWTEACYSNDDNSGECMQTLSLTKDLGRTFQLIDIYVVQFNWGDKESHLEDTIYYTRHKNRNGHQQRFSGWSKDVDFVATHNFGKSVDVLVKQGNKFLISNGYIFVAKLNDVIKQTVNMMVSTDGGKTFNKANLPENIHEKSYTVLDTSEGSIMLHVNHGTSSEKINTGNVYISDASGLNYALSLPNNIRTSSGECEFDRVLSLDGVYIANFLDVNNEIKDEDLRFQNFKSAIEEDIAPFETNTEKRKKQYNKGKNEDAVRTVISFNKGGEWSYLKAPKVDSRGNKYECGDNCYLHLHGITNYHQYAPFYSIENAVGIIMGTGNVGSHLRYESDEVNTFLSRDGGVTWIEAHKGPYIYEYGDYGGLIVMADDLRKTNQIVFSWNEGQSWFDFELGQFSIDVDNIVAEPNSASVEFLVYGTRNDVGVLYHLDFNALGQPLCKGLWAADSVSSDYETWSPTSGNFNDKCILGRKITYTRRKQTSECFNGKDLKRTVDKKPCECTPEDYECETGFTRKIGSYECKPNDPTLTIEGCTSSSYFYANAYRKVPGDICVNGWVPEKVPVPCPSYAPFNKAAK
# modifications: bait human Fc-tagged dimer
# Biological target: FGFR4 ectodomain (Homo sapiens, UniProt P22455)
# Test: AVEXIS normalised luminescence
row,Binder,binding score
1,B1,0.776
2,B2,0.902
3,B3,1.04
4,B4,0.648

# Reference: publication PMC11098746 (2024)
